According to patent publication US20030092616A1, “STAT6 activation gene” (priority 2001, published 2003):

System: STAT6
Test: Screening of full-length cDNA clones for promotion of STAT6 activation (luciferase reporter N4×8-luc)
Assay type: cell-based
Details: NIH3T3 cells cotransfected with N4×8-luc reporter and cDNA plasmid; 48 h culture, then mouse IL-4 0.5 ng/ml for 6 h
Procedure, shortened: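 Promotion of STAT6 activation scored as increase in luciferase signal over null-vector control cells. NIH3T3 cells carried N4×8-luc (100 ng) plus cDNA clone; after 48 h culture, 6 h stimulation with 0.5 ng/ml (final) mouse IL-4 preceded reading.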

B1: 115 (nucleic acid, listed as Homo sapiens)
chain: GTTTTCCGCCGTCCGTCCGGGCGGGCGGGCGCAGAGTCCCGCGGGCGGCGCGGAAGCGGCGGCGGCGCGGCCGGGGCAGCCATGTCGCCATTGTCTGCGGCGCGGGCGGCCCTGCGGGTCTACGCGGTAGGCGCCGCGGTGATCCTGGCGCAGCTGCTGCGGCGCTGCCGCGGGGGCTTCCTGGAGCCAGTTTTCCCCCCACGACCTGACCGTGTCGCTATAGTGACGGGAGGGACAGATGGCATTGGCTATTCTACAGCGAAGCATCTGGCGAGACTTGGCATGCATGTTATCATAGCTGGAAATAATGACAGCAAAGCCAAACAAGTTGTAAGCAAAATAAAAGAAGAAACCTTGAACGACAAAGTGGAATTTTTATACTGTGACTTGGCTTCCATGACTTCCATCCGGCAGTTTGTGCAGAAGTTCAAGATGAAGAAGATTCCTCTCCATGTCCTGATCAACAATGCTGGGGTGATGATGGTCCCTCAGAGGAAAACCAGAGATGGATTCGAAGAACATTTCGGCCTGAACTACCTAGGGCACTTCCTGCTGACCAACCTTCTCTTGGATACGCTGAAAGAGTCTGGGTCCCCTGGCCACAGTGCGAGGGTGGTCACCGTCTCCTCTGCCACCCATTACGTCGCTGAGCTGAACATGGATGACCTTCAGAGCAGTGCCTGCTACTCACCCCACGCAGCCTACGCCCAGAGCAAGCTGGCCCTTGTCCTGTTCACCTACCACCTCCAGCGGCTGCTGGCGGCTGAGGGAAGCCACGTGACCGCCAACGTGGTGGACCCCGGGGTGGTCAACACGGACCTCTACAAGCACGTGTTCTGGGCCACCCGTCTGGCGAAGAAGCTTCTCGGCTGGTTGCTTTTCAAGACCCCCGATGAAGGAGCGTGGACTTCCATCTACGCAGCAGTCACCCCAGAGCTGGAAGGAGTTGGTGGCCGTTACCTATACAACGAGAAAGAGACCAAGTCCCTCCACGTCACCTACAACCAGAAACTGCAGCAGCAGCTGTGGTCTAAGAGTTGTGAGATGACTGGGGTCCTTGATGTGACCCTGTGATATCCTGTCTCAGGATAGCTGCTGCCCCAAGAAACACATTGCACCTGCCAATAGCTTGTGGGTCTGTGAAGACTGCGGTGTTTGAGTTTCTCACACCCACCTGCCCACAGGGCTCTGTCCTCTAGTTTTGAGACAGCTGCCTCAACCTCTGCAGAACTTCAAGAAGCCAAATAAACATTTTGGAGGATAATCACCCCAAGTGGTCTTCAACCATAAACTTTGTGATTCCAAAGTGCCCAGTTGTCACAGGTGCCATAAATAATTACATTTTCCAACAT
modifications: CDS (82)..(1071)
Activity = (luciferase activity of the gene of each SEQ ID NO:)/(luciferase activity of pME18S-FL3): 8.6

B2: 117 (nucleic acid, listed as Homo sapiens)
chain: GAGCGGCGATGCCGGGGCGGCGGCGCCCGAGTCCGGAGCCCGAGCCCGAAGAGGAGCCGCCCCGGCCCCGCGCCCCCCCGGGAGCTCCGGGCCCTGGGCCTGGTTCGGGAGCCCCCGGCAGCCAAGAGGAGGAGGAGGAGCCGGGACTGGTCGAGGGTGACCCGGGGGACGGCGCCATTGAGGACCCGGAGCTGGAAGCTATCAAAGCTCGAGTCAGGGAGATGGAGGAAGAAGCTGAGAAGCTAAAGGAGCTACAGAACGAGGTAGAGAAGCAGATGAATATGAGTCCACCTCCAGGCAATGCTGGCCCGGTGATCATGTCCATTGAGGAGAAGATGGAGGCTGATGCCCGTTCCATCTATGTTGGCAATGTGGACTATGGTGCAACAGCAGAAGAGCTGGAAGCTCACTTTCATGGCTGTGGTTCAGTCAACCGTGTTACCATACTGTGTGACAAATTTAGTGGCCATCCCAAAGGGTTTGCGTATATAGAGTTCTCAGACAAAGAGTCAGTGAGGACTTCCTTGGCCTTAGATGAGTCCCTATTTAGAGGAAGGCAAATCAAGGTGATCCCAAAACGAACCAACAGACCAGGCATCAGCACAACAGACCGGGGTTTTCCACGAGCCCGCTACCGCGCCCGGACCACCAACTACAACAGCTCCCGCTCTCGATTCTACAGTGGTTTTAACAGCAGGCCCCGGGGTCGCGTCTACAGGGGCCGGGCTAGAGCGACATCATGGTATTCCCCTTACTAAAAAAAGTGTGTATTAGGAGGAGAGAGAGGAAAAAAAGAGGAAAGAAGGAAAAAAAAAAGAATTAAAAAAAAAAAAAAGAAAAAC
modifications: CDS (9)..(755)
Activity = (luciferase activity of the gene of each SEQ ID NO:)/(luciferase activity of pME18S-FL3): 10.1
